Laboratory results taken from US20160331662A1, “Compositions that Inhibit and Prevent the Formation of Dental Caries and Methods of Using the Same” (priority 2014, published 2016).

Assays:
[1] = target: T1, iSRCR1 (Deglycosylated) (Homo sapiens, UniProt Q9UGM3); assay: SPR binding of analytes to on-chip deglycosylated iSRCR1; details: ligand iSRCR1 (Deglycosylated)
T1 construct: strongly proves that a single SRCR domain contains the adherence sites for AgI/II and SspB; made in house; host or cells: Drosophila expression system
Method: (§1) Real time binding analyses of the SRCR domains with AgI/II fragments were carried out using the BIAcore 2000 system. […] Self association of iSRCR1 or iSRCR123 (at 2 μM) were also determined in a similar manner as described above. Finally to determine the effect of calcium SPR analysis was carried out by dialyzing the analytes and ligands in binding buffer devoid of CaCl2.
(§2) On-chip Deglycosylation of the iSRCR1 and iSRCR123 was carried out after immobilizing them on CM5 sensor chip. Enzymatic deglycosylation was done to remove N- and O-linked carbohydrates from iSRCR1 and iSRCR123. Briefly, after immobilization of iSRCR1 and iSRCR123, deglycosylation was carried out at native conditions by incubating the entire chip surface externally with a cocktail containing a total reaction volume of 40 μl made up of 4 μl of 10×G7reaction buffer, 4 μl of 10% NP40, 4 μl of Neuraminidase (Sigma), 18 μl water and 10 μl of O-glycosidase (New England Biolabs, Inc.,) and similarly following manufacturers protocols for EndoH (New England Biolabs, Inc). Later, the chip was sealed and incubated overnight at 37° C. Subsequently the chip was thoroughly washed with binding buffer (20 mM HEPES, 150 mM NaCl, 2.5 mM CaCl2) to remove the deglycosylating enzymes and other remnants. Binding studies with FL^AgI/II and FL^SspB and subfragments were then carried out as described above and regenerated as described in Table 2.
(§3) In addition, the SRCR holding two distinct surfaces compounded the elucidation of individual kinetics, and presently there are no modeling protocols available to determine the individual affinities for such a system, therefore for simplicity we have utilized a single site 1:1 Langmuir model. All experiments were carried out in triplicates and the kinetics of the association (KA) and dissociation (KD) rate constants were deduced using the 1:1 Langmuir Kinetic model on the BIA-Evaluation software. The concentration (C in μM) of analyte (FL^AgI/II or FL^SspB at 2 μM) that adhered to the immobilized ligand (iSRCR1, iSRCR123) within the flow cell was calculated using the formula C=(RU/MW)×(1/V), where RU is resonance unit (1 RU=1 pg of bound protein), MW is molecular weight of analyte and V is volume of flow cell (1.2×10^−10 L).

[2] = target: T2, iSRCR123 (Deglycosylated) (Homo sapiens, UniProt Q9UGM3); assay: SPR binding of analytes to on-chip deglycosylated iSRCR123; details: ligand iSRCR123 (Deglycosylated)
T2 construct: multiple SRCR domains have better adherence capability compared to that of a single SRCR domain; made in house; host or cells: Drosophila expression system
Method: as §1, §2, §3

[3] = target: T3, iSRCR123 (Homo sapiens, UniProt Q9UGM3); assay: SPR binding of analytes to immobilized iSRCR123 (CM5 chip, 1:1 Langmuir); details: for KA / Kd / ka / kd: ligand iSRCR123
T3 construct: multiple SRCR domains have better adherence capability compared to that of a single SRCR domain; made in house; host or cells: Drosophila expression system
Method: as §1, §3

[4] = target: T4, iSRCR1 (Homo sapiens, UniProt Q9UGM3); assay: SPR binding of analytes to immobilized iSRCR1 (CM5 chip, 1:1 Langmuir); details: ligand iSRCR1
T4 construct: strongly proves that a single SRCR domain contains the adherence sites for AgI/II and SspB; made in house; host or cells: Drosophila expression system
Method: as §1, §3

[5] = target: T3, iSRCR123; assay: Competition adherence SPR on immobilized iSRCR123; format: binding; details: FL injected first
Method: (§4) To determine whether AgI/II domains bound to the same site on SRCR domains, competitive binding SPR experiments were conducted in triplicates as previously described where each fragment of AgI/II (FL, A3VP1, or C123) or SspB (FL, A3VP1 or C123) was initially passed over the chip surface immobilized with either iSRCR1, iSRCR123 or SAG for 60 seconds to saturate available binding sites. The response curve of AgI/II or SspB first fragment was recorded, where the maximal RU (RU1) was considered as the base line for the second injection, and thereafter the competing fragment was injected and its response was recorded as RU2. The adherence of the second fragment was then calculated (RU2−RU1) for all SPR competing assay as reported earlier.

[6] = target: T5, SAG (Homo sapiens, UniProt Q9UGM3); assay: SPR binding of analytes to immobilized SAG; details: ligand SAG
T5 construct: from tissue; host or cells: saliva (purified SAG, gift)
Method: as §1, §3

[7] = target: T4, iSRCR1; assay: Competition adherence SPR on immobilized iSRCR1; format: binding; details: FL injected first
Method: as §4

T3 sequence (Q9UGM3 102-463 limits assumed): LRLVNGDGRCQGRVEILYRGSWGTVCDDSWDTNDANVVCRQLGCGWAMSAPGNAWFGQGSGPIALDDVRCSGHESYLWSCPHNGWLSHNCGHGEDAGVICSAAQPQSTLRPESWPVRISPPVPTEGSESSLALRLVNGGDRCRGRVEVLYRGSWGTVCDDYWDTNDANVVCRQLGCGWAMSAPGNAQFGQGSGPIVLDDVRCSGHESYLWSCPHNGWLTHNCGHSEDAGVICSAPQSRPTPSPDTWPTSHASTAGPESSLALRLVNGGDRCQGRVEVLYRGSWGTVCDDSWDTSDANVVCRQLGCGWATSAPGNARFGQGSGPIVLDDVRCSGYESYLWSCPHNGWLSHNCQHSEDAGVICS
T2 sequence (Q9UGM3 102-463 limits assumed): as above
T5 sequence (Q9UGM3 20-2413): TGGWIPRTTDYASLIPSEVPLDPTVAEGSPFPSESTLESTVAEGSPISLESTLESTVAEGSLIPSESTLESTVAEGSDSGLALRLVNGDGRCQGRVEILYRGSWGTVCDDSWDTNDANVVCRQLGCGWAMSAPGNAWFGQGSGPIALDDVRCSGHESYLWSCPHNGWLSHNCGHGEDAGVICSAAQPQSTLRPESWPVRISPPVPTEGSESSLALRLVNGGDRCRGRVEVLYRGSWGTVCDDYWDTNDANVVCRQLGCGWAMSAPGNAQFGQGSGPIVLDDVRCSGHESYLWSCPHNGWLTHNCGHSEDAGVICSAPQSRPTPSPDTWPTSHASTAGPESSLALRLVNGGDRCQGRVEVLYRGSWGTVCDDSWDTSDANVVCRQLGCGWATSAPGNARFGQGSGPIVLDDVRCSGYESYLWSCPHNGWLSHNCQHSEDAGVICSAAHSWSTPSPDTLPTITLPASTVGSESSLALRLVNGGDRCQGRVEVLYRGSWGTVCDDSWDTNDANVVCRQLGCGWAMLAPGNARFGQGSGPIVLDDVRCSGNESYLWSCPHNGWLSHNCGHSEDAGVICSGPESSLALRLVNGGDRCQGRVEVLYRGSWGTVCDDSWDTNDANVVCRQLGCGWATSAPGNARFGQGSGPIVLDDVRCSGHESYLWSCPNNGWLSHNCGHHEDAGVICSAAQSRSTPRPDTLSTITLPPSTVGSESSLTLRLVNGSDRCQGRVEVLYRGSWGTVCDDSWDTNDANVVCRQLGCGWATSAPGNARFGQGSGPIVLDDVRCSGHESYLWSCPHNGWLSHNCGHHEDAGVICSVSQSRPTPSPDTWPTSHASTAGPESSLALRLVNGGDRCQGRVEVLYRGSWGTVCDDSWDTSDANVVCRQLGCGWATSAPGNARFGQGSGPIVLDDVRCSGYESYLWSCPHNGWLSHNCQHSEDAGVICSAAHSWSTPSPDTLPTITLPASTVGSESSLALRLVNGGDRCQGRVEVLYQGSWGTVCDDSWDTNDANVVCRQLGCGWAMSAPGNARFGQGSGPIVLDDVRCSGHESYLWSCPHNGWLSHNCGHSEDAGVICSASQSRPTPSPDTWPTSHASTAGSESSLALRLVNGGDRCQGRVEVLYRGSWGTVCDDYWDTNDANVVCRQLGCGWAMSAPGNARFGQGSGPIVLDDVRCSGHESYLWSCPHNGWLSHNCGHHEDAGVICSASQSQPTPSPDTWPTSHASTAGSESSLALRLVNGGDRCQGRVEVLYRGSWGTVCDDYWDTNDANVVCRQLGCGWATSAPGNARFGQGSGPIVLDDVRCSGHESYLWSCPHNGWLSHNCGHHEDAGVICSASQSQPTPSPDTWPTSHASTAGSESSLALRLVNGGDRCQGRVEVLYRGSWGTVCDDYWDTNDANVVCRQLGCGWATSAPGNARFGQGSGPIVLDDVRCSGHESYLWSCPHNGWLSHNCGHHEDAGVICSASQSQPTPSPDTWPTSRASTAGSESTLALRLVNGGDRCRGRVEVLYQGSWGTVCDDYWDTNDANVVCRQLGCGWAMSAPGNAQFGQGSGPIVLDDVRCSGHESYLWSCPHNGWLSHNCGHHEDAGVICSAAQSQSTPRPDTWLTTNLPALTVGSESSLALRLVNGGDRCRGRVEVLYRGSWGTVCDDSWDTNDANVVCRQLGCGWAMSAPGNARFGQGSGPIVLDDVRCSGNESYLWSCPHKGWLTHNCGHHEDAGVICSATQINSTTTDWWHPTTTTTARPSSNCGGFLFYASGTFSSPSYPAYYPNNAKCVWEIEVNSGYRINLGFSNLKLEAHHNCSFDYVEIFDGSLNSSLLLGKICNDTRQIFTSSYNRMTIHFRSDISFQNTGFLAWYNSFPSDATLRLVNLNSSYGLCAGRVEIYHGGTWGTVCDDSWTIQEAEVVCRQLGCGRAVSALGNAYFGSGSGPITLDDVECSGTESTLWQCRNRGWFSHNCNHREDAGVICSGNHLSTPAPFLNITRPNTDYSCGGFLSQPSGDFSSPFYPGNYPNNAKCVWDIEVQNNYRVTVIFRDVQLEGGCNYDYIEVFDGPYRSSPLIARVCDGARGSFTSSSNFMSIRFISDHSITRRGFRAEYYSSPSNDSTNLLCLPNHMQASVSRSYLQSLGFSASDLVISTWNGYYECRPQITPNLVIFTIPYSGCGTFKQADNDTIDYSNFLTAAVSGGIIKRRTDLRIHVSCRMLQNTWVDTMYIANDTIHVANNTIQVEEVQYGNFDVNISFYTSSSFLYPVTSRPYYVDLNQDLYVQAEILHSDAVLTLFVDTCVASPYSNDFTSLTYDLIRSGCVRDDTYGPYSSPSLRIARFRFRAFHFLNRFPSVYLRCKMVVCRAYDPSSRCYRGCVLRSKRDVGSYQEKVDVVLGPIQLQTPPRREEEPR
T1 sequence (Q9UGM3 102-202): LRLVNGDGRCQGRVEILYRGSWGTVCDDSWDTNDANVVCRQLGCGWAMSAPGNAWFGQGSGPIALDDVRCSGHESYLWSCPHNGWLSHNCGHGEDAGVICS
T4 sequence (Q9UGM3 102-202 limits assumed): as the sequence (Q9UGM3 102-202) above

Molecule | KA [1] [M⁻¹] | Kd [1] [nM] | ka [1] [M⁻¹ s⁻¹] | kd [1] [s⁻¹] | KA [2] [M⁻¹] | Kd [2] [nM] | ka [2] [M⁻¹ s⁻¹] | kd [2] [s⁻¹] | KA [3] [M⁻¹] | Kd [3] [nM] | ka [3] [M⁻¹ s⁻¹] | kd [3] [s⁻¹] | KA [4] [M⁻¹] | Kd [4] [nM] | ka [4] [M⁻¹ s⁻¹] | kd [4] [s⁻¹] | also measured
A3VP1^AgI/II: S. mutans AgI/II apical A3VP1 fragment (54.4 kDa) (protein) AANEADYQAKLTAYQTELARVQKANADAKAAYEAAVAANNAANAALTAENTAIKKRNADAKADYEAKLAKYQADLAKYQKDLADYPVKLKAYEDEQASIKAALAELEKHKNEDGNLTEPSAQNLVYDLEPNANLSLTTDGKFLKASAVDDAFSKSTSKAKYDQKILQLDDLDITNLEQSNDVASSMELYGNFGDKAGWSTTVSNNSQVKWGSVLLERGQSATATYTNLQNSYYNGKKISKIVYKYTVDPKSKFQGQKVWLGIFTDPTLGVFASAYTGQVEKNTSIFIKNEFTFYDEDGKPINFDNALLSVASLNRENNSIEMAKDYTGKFVKISGSSIGEKNGMIYATDTLNFRQGQGGARWTMYTRASEPGSGWDSSDAPNSWYGAGAIRMSGPNNSVTLGAISSTLVVPADPTMAIETGKKPNIWYSLNGKIRAVNVPKVTKEKPTPPVKPTAPTKPTYETEKPLKPAPVAPNYEKEPTPPTRTPDQ | 1.92e+06 | 520 | 5270 | 0.00274 | 1.22e+06 | 818 | 4070 | 0.00333 | 7.98e+06 | 125 | 19900 | 0.00249 | 8.57e+06 | 117 | 28000 | 0.00327 | –
C123^AgI/II: S. mutans AgI/II C-terminal C123 fragment (57.3 kDa) (protein) VNKEIRNNNDINIDRTLVAKQSVVKFQLKTADLPAGRDETTSFVLVDPLPSGYQFNPEATKAASPGFDVTYDNATNTVTFKATAATLATFNADLTKSVATIYPTVVGQVLNDGATYKNNFTLTVNDAYGIKSNVVRVTTPGKPNDPDNPNNNYIKPTKVNKNENGVVIDGKTVLAGSTNYYELTWDLDQYKNDRSSADTIQKGFYYVDDYPEEALELRQDLVKITDANGNEVTGVSVDNYTNLEAAPQEIRDVLSKAGIRPKGAFQIFRADNPREFYDTYVKTGIDLKIVSPMVVKKQMGQTGGSYENQAYQIDFGNGYASNIIINNVPKINPKKDVTLTLDPADTNNVDGQTIPLNTVFNYRLIGGIIPADHSEELFEYNFYDDYDQTGDHYTGQYKVFAKVDITFKDGSIIKSGAELTQYTTAEVDTAKGAITIKFKEAFLRSVSIDSAFQAESYIQMKRIAVGTFENTYINTVNGVTYSSNTVK | 48100 | 20800 | 1180 | 0.0246 | 458000 | 2180 | 3010 | 0.00658 | 1.15e+07 | 87 | 8290 | 0.000721 | 6.46e+06 | 151 | 15400 | 0.00232 | –
FL^SspB: S. gordonii SspB full length construct (151.9 kDa) (protein) DEVTETTSTSTVEVATTGNPATNLPEAQGEMSQVAKESQAKAGSKESALPVEVSSADLDKAVADAKSAGVKVVQDETKDKGTATTATDNAQKQDEIKSDYAKQAEEIKTTTEAYKKEVAAHQAETDKINAENKAADDKYQKDLKSHQEEVEKINTANATAKAEYEAKLAQYQKDLATVKKANEDSQQDYQNKLSAYQTELARVQKANAEAKEAYEKAVKENTAKNEALKVENEAIKQRNETAKATYEAAMKQYEADLAAIKKANEDNDADYQAKLAAYQTELARVQKANAEAKEAYDKAVKENTAKNTAIQAENEAIKQRNETAKATYDAAVKKYEADLAAVKQANATNEADYQAKLAAYQTELARVQKANADAKATYEKAVEDNKAKNAAIKAENEEIKQRNAVAKTDYEAKLAKYEADLAKYKKEFAAYTAALAEAESKKKQDGYLSEPRSQSLNFKSEPNAIRTIDSSVHQYGQQELDALVKSWGISPTNPDRKKSRAYSYFNAINSNNTYAKLVLEKDKPVDVTYTGLKNSSFNGKKISKVVYTYTLKETGFNDGTKMTMFASSDPTVTAWYNDYFTSTNINVKVKFYDEEGQLMNLTGGLVNFSSLNRGNGSGAIDKDAIESVRNFNGRYIPISGSSIKIHENNSAYADSSNAEKSLGARWNTSEWDTTSSPNNWYGAIVGEITQSEISFNMASSKSGNIWFAFNSNINAIGVPTKPVAPTAPTQPMYETEKPLEPAPVAPSYENEPTPPVKTPDQPEPSKPEEPTYETEKPLEPAPVAPSYENEPTPPVKTPDQPEPSKPEEPNYETEKPLEPAPVAPSYENEPTPPVKIPDQPEPSKPEEPTYDPLPTPPLAPTPKQLPTPPVVPTVHFHYSSLLAQPQINKEIKNEDGVDIDRTLVAKQSIVKFELKTEALTAGRPKTTSFVLVDPLPTGYKFDLDATKAASTGFDTTYDEASHTVTFKATDETLATYNADLTKPVETLHPTVVGRVLNDGATYTNNFTLTVNDAYGIKSNVVRVTTPGKPNDPDNPNNNYIKPTKVNKNKEGLNIDGKEVLAGSTNYYELTWDLDQYKGDKSSKEAIQNGFYYVDDYPEEALDVRPDLVKVADEKGNQVSGVSVQQYDSLEAAPKKVQDLLKKANITVKGAFQLFSADNPEEFYKQYVATGTSLVITDPMTVKSEFGKTGGKYENKAYQIDFGNGYATEVVVNNVPKITPKKDVTVSLDPTSENLDGQTVQLYQTFNYRLIGGLIPQNHSEELEDYSFVDDYDQAGDQYTGNYKTFSSLNLTMKDGSVIKAGTDLTSQTTAETDATNGIVTVRFKEDFLQKISLDSPFQAETYLQMRRIAIGTFENTYVNTVNKVAYASNTVRTTTPIPRTPDKPTPIPTPKPKDP | 7.97e+06 | 125 | 8300 | 0.00104 | 5.24e+06 | 191 | 6920 | 0.00132 | 2.38e+07 | 42.1 | 18200 | 0.000759 | 3.91e+06 | 256 | 9250 | 0.00237 | inhibition of binding of the A3VP1 fragment of the same protein [5]: 68%; inhibition of binding of the C123 fragment of the same protein [5]: 76%; KA [6]: 1.63e+08 M⁻¹; ka [6]: 320000 M⁻¹ s⁻¹; kd [6]: 0.00197 s⁻¹; quantity of protein that adhered to iSRCR123, higher than iSRCR1 ([3]; analyte at 2 μM, iSRCR123 versus iSRCR1): 43%; inhibition of binding of the A3VP1 fragment of the same protein [7]: 54%; inhibition of binding of the C123 fragment of the same protein [7]: 23%
